According to US20260116960A1 (SHANGHAI HONGCHENG BIOPHARMACEUTICAL, published 2026):

Legend:
[1] = molecular target: T1, human PD-1 on the cell surface (human, UniProt Q15116 25-288); assay: flow cytometry on activated human T cells (CD3+), PE anti-human IgG Fc
T1 construct: whole, on cells; also called cell surface PD-1
Description: Human peripheral blood mononuclear cells (PBMCs, Miaoshun (Shanghai) Biotechnology Co., Ltd., Catalog No.: A19K154025) were rapidly thawed in a 37° C. water bath, resuspended in T cell isolating solution, and counted. After centrifugation at 400 g for 10 minutes, the supernatant was removed and the cells were resuspended to 5×10⁷ cells/mL with T cell separation buffer. T cells were isolated according to the procedure of a T cell isolation kit (Stemcell, Catalog No.: 19051), and the obtained T cells were resuspended in culture medium. The cells were counted using NucleoCounter NC-200 and the T cell density was adjusted to approximately 1×10⁶ cells/mL. Dynabeads containing anti-CD3 and anti-CD28 antibodies (Invitrogen™, Catalog No.: 11132D) and 10 ng/ml hIL-2 (Peprotech, Catalog No.: 200-02) were added and cultured in a 37° C., 5% CO₂ incubator for 3 days. After removing Dynabeads and supernatant, the activated T cells were resuspended in FACS buffer. The cell density was adjusted to about 1×10⁶ cells/mL, and 100 μL of cell solution was added into a 96-well U-bottom plate, 1×10⁵ cells/well. After centrifugation at 500 g for 5 minutes, the supernatant was discarded and 100 μL of the trispecific antibody solution of the present application serially diluted 3-fold with FACS buffer was added in triplicate, with a starting concentration of 200 nM. After mixing, incubated at 4° C. for 60 minutes. After centrifugation and washing three times with FACS buffer, 100 μL/well of PE anti-human IgG Fc (Biolegend, Catalog No.: 366903) was added and incubated at 4° C. for 50 minutes. After washing the plate three times with FACS buffer, 100 μL/well of BV421 anti-human CD3 antibody (OKT3) (Biolegend, Catalog No.: 317344) was added and incubated at 4° C. for 50 minutes. After washing the plate three times with FACS buffer, 70 μL/well of PBS solution was added to resuspend the cells, and the fluorescent signal on CD3 T cells was detected on a flow cytometer (BD Cellesta). The binding activity was fitted using a four-parameter model, and the EC₅₀ value of each antibody binding to T cells was calculated.

[2] = molecular target: T2, human CTLA-4 protein (Acro, Catalog No. CT4-H52H9) (human, UniProt P16410 36-161); assay: BLI (Octet RED96e), antibody on AHC sensor, antigen as analyte 6.25-100 nM, 1:1 model
T2 construct: Bought protein
Description: Octet® RED96e (ForteBio) was used to detect the affinity of trispecific antibodies to human PD-1, CTLA-4 and VEGFA. The specific method was as follows: the AHC Sensor was immersed in PBST (PBS containing 0.02% Tween) buffer for 10 minutes to activate the Sensor. The ligand (antibody to be tested) was diluted to 5 μg/mL with PBST buffer. […] The diluted ligand and analyte were added to the corresponding wells at 200 μL/well in triplicate. Program parameter settings: loading: 180 s, association: 180 s, dissociation: 600 s, regeneration: Gly-HCl pH 1.5, 30s, regeneration 3 times. […] Curve fit acceptance criteria: Full R\hat{ }2≥0.95.

[3] = molecular target: T2, human CTLA-4 protein (Acro, Catalog No. …); assay: ELISA, plate coated with human CTLA-4 protein
[4] = molecular target: T3, human CTLA-4 on the cell surface (human, UniProt P16410 36-223); assay: flow cytometry, CHO-hCTLA-4 cells, batch FACS#3
T3 construct: whole, on cells; also called CHO-hCTLA-4 cells; CHOK1-hCTLA4 cells

[5] = molecular target: T3, human CTLA-4 on the cell surface; assay: flow cytometry, CHO-hCTLA-4 cells, batch FACS#4
[6] = molecular target: T4, human VEGF165-his protein (Acro, Catalog No. VE5-H5248) (human, UniProt P15692-4 27-191); assay: ELISA, plate coated with human VEGF165-his
T4 construct: Bought protein; also called hVEGF165-His; VEGFA; not shown: his tag
Description: (§1) ELISA was used to determine the activity of the trispecific antibodies binding to the PD-1 protein: 1 μg/mL human PD-1 protein (Acro, Catalog No.: PD1-H5221) was used to coat a high-adsorption 96-well ELISA plate and incubated at 4° C. overnight. On the next day, the plate was washed three times with PBST solution and blocked with 1% BSA-PBS solution at 37° C. for 1 hour. At the same time, 3-fold gradient dilutions of the antibody were prepared with 1% BSA-PBS solution, with a starting concentration of 10 nM. The antibodies of each gradient concentration were added to the blocked 96-well ELISA plate at 100 µL/well in triplicate and incubated at 37° C. for 1 hour. The plate was then washed three times with 0.05% PBST solution, and 100 μL/well of HRP-labeled secondary antibody (Sigma, Catalog No.: A0170) diluted at 1:5000 was added to the ELISA plate and incubated at 37° C. for 1 hour. The plate was washed three times with 0.05% PBST solution and developed with TMB. The absorbance of the 96-well ELISA plate at 450 nm was detected by an ELISA reader. The OD₄₅₀ value was fitted using a four-parameter model to calculate the EC₅₀ value of each antibody binding to PD-1.
The binding activity of the trispecific antibodies to VEGFA protein was detected by ELISA method as described in Section 2.1. The used human VEGF165-his protein was purchased from Acro, Catalog No.: VE5-H5248.

[7] = molecular target: T5, human PD-1 protein (Acro, Catalog No. PD1-H5221) (human, UniProt Q15116 25-167); assay: ELISA, plate coated with human PD-1 protein
T5 construct: Bought protein; also called human PD1-his; not shown: his tag
Description: as §1

[8] = molecular target: human PD-1 protein (Acro, PD1-H5257) (human, UniProt Q15116 25-167); assay: competitive ELISA, PD-1 coated, biotin-PD-L1 as labelled ligand
Description: The next day, the plate was washed three times with PBS solution and blocked with 1% BSA-PBS solution at 37° C. for 1 hour. […] 100 μL of the antibody-protein mixture was added to each well of the blocked 96-well ELISA plate and incubated at 37° C. for 1 hour. After washing four times with PBST, 100 μL of Strep-HRP (BD, Catalog No. 554066) diluted 1:5000 was added to each well of the ELISA plate and incubated at 37° C. for 1 hour. After washing 4 times with PBST, TMB was used for color development. The absorbance at 450 nm and 630 nm was detected by a microplate reader, and OD450-OD630 was calculated. The fluorescence intensity was fitted using a four-parameter model, and the IC₅₀ value of the blocking activity of each antibody was calculated.

[9] = molecular target: T1, human PD-1 on the cell surface; assay: flow cytometry competition, 293T-hPD-1 cells, biotin-human PD-L1
Description: 50 μL of antibody solution serially diluted 3-fold in FACS buffer was added in triplicate, with a starting concentration of 200 nM. After mixing, incubated at 4° C. for 60 minutes. After washing three times with FACS buffer, 100 μL/well of 1:800 diluted PE Streptavidin was added and incubated at 4° C. for 50 min. After washing three times with FACS buffer, 150 μL/well of PBS was added to resuspend the cells, and the fluorescence signal was detected on a flow cytometer (BECKMAN COULTER cytoFLEX). The four-parameter model was used to fit the binding activity and the IC₅₀ value of the blocking activity of each antibody was calculated.

[10] = molecular target: T3, human CTLA-4 on the cell surface; assay: flow cytometry competition, 293T-hPD-1-hCTLA-4 cells (PD-1 co-expressed), biotin-human CD80
Description: PD-1 and CTLA-4 are co-expressed on functionally exhausted T cells in the tumor microenvironment, and the expression level of PD-1 is higher than that of CTLA-4. […] 200 μL of the cells were added to a 96-well U-bottom plate, approximately 1.4×10⁵ cells/well. After centrifugation at 300 g for 5 minutes, the supernatant was discarded. […] After washing three times with FACS buffer, 100 μL/well of 1:800 diluted PE Streptavidin was added and incubated at 4° C. for 50 min. After washing three times with FACS buffer, 150 μL/well of PBS was added to resuspend the cells, and the fluorescence signal was detected on a flow cytometer (BECKMAN COULTER cytoFLEX). The binding activity was fitted using a four-parameter model, and the IC₅₀ value of the blocking activity of each antibody was calculated.

T3 sequence (P16410 36-223): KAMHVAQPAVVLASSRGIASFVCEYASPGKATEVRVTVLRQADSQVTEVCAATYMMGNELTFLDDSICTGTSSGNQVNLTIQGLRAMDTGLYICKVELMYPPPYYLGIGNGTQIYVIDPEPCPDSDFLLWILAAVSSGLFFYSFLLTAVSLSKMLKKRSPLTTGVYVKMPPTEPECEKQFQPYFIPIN
T2 sequence (P16410 36-161 limits assumed): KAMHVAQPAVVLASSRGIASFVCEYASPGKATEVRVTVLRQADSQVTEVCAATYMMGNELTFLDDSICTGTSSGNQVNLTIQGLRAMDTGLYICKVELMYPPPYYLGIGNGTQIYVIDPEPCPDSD
T1 sequence (Q15116 25-288): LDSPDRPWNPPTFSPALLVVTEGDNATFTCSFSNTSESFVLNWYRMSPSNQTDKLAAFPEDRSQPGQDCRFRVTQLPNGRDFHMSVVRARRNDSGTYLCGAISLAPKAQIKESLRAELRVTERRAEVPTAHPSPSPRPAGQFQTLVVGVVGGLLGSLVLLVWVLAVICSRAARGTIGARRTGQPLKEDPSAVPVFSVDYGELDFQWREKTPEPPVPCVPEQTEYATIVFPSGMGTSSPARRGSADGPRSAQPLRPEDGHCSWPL
human PD-1 protein (Acro, PD1-H5257), sequence (Q15116 25-167 limits assumed): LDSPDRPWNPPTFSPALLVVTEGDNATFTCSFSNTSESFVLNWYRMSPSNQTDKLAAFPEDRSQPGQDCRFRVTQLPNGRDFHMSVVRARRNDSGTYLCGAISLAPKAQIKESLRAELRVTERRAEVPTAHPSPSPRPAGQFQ
T5 sequence (Q15116 25-167 limits assumed): as above
T4 sequence (P15692 other isoform, or with tags, fused parts or gaps limits assumed): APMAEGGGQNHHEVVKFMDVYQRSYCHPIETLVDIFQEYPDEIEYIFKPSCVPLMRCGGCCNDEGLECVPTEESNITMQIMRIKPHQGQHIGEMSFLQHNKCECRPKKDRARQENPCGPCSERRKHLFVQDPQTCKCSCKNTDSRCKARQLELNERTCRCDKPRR

B1: sintilimab (antibody, V domains shown)
VH: QVQLVQSGAEVKKPGSSVKVSCKASGGTFSSYAISWVRQAPGQGLEWMGLIIPMFDTAGYAQKFQGRVAITVDESTSTAYMELSSLRSEDTAVYYCARAEHSSTGTFDYWGQGTLVTVSS
VL: DIQMTQSPSSVSASVGDRVTITCRASQGISSWLAWYQQKPGKAPKLLISAASSLQSGVPSRFSGSGSGTDFTLTISSLQPEDFATYYCQQANHLPFTFGGGTKVEIK
EC50 [1]: 0.231 nM

B2: camrelizumab (antibody, V domains shown)
VH: EVQLVESGGGLVQPGGSLRLSCAASGFTFSSYMMSWVRQAPGKGLEWVATISGGGANTYYPDSVKGRFTISRDNAKNSLYLQMNSLRAEDTAVYYCARQLYYFDYWGQGTTVTVSS
VL: DIQMTQSPSSLSASVGDRVTITCLASQTIGTWLTWYQQKPGKAPKLLIYTATSLADGVPSRFSGSGSGTDFTLTISSLQPEDFATYYCQQVYSIPWTFGGGTKVEIK
EC50 [1]: 0.473 nM

B3: 202F1 (VHH)
VHH: EVQLLESGGGLVQPGGSLRLSCAASGSIFSINHMAWYRQAPGKQRELVAGVNSRGTTNYVDSVKGRFTISRDNSKNTLYLQMNSLRAEDTAVYYCRALGGAVAAWGQGTLVTVSS
notes: also called anti-CTLA-4 nanobody (202F1)
Kd [2]: 0.203 nM

B4: 202F1-hIgG1 (antibody, V domains shown)
VH: B3 VHH
notes: also called anti-CTLA-4 nanobody 202F1 with hIgG1 constant region
EC50 [3]: 0.078 nM | EC50 [4]: 1.71 nM | EC50 [5]: 1.05 nM

B5: HC010-F14 (trispecific antibody, human IgG4 S228P)
heavy 1: EVQLVESGGGLVQPGGSLRLSCAASGFTFSSYGMSWVRQAPGKCLEWVSTISGGGRDTYYPDSVKGRFTISRDNSKNTLYLQMNSLRAEDTAVYYCARQNGITWFADWGQGTLVTVSSGGGGSGGGGSGGGGSGGGGSDIQMTQSPSSLSASVGDRVTITCRASESVDNYGISFMNWYQQKPGKAPKLLIYAASNQGSGVPSRFSGSGSGTDFTLTISSLQPEDFATYYCQQSKEVPWTFGCGTKVEIKGGGGSGGGGSGGGGSGGGGSESKYGPPCPPCPAPEFLGGPSVFLFPPKPKDTLMISRTPEVTCVVVDVSQEDPEVQFNWYVDGVEVHNAKTKPREEQFNSTYRVVSVLTVLHQDWLNGKEYKCKVSNKGLPSSIEKTISKAKGQPREPQVYTLPPCQEEMTKNQVSLWCLVKGFYPSDIAVEWESNGQPENNYKTTPPVLDSDGSFFLYSRLTVDKSRWQEGNVFSCSVMHEALHNHYTQKSLSLSLGAGGGGSGGGGSGGGGSGGGGSEVQLVESGGGLVQPGGSLRLSCAASGYTFTNYGMNWVRQAPGKCLEWVGWINTYTGEPTYAADFKRRFTFSLDTSKSTAYLQMNSLRAEDTAVYYCAKYPHYYGSSHWYFDVWGQGTLVTVSSGGGGSGGGGSGGGGSGGGGSDIQMTQSPSSLSASVGDRVTITCSASQDISNYLNWYQQKPGKAPKVLIYFTSSLHSGVPSRFSGSGSGTDFTLTISSLQPEDFATYYCQQYSTVPWTFGCGTKVEIK
heavy 2: EVQLLESGGGLVQPGGSLRLSCAASGSIFSINHMAWYRQAPGKQRELVAGVNSRGTTNYVDSVKGRFTISRDNSKNTLYLQMNSLRAEDTAVYYCRALGGAVAAWGQGTLVTVSSGGGGSGGGGSGGGGSGGGGSESKYGPPCPPCPAPEFLGGPSVFLFPPKPKDTLMISRTPEVTCVVVDVSQEDPEVQFNWYVDGVEVHNAKTKPREEQFNSTYRVVSVLTVLHQDWLNGKEYKCKVSNKGLPSSIEKTISKAKGQPREPQVCTLPPSQEEMTKNQVSLSCAVKGFYPSDIAVEWESNGQPENNYKTTPPVLDSDGSFFLVSRLTVDKSRWQEGNVFSCSVMHEALHNRFTQKSLSLSLGAGGGGSGGGGSGGGGSGGGGSEVQLVESGGGLVQPGGSLRLSCAASGYTFTNYGMNWVRQAPGKCLEWVGWINTYTGEPTYAADFKRRFTFSLDTSKSTAYLQMNSLRAEDTAVYYCAKYPHYYGSSHWYFDVWGQGTLVTVSSGGGGSGGGGSGGGGSGGGGSDIQMTQSPSSLSASVGDRVTITCSASQDISNYLNWYQQKPGKAPKVLIYFTSSLHSGVPSRFSGSGSGTDFTLTISSLQPEDFATYYCQQYSTVPWTFGCGTKVEIK
notes: also called H010-F14
EC50 [6]: 0.096 nM | EC50 [7]: 0.472 nM | EC50 [3]: 0.734 nM | IC50 [8]: 2.41 nM | IC50 [9]: > 200 nM | IC50 [10]: 0.116 nM
